What was measured:
[1] = target: CPSF complex (CPSF73-3xFlag immunopurified) (human? (HEK293), UniProt Q10570;Q9C0J8;Q9P2I0;Q9UKF6;Q6UN15;O95639;Q92797 …); assay: EMSA
Flag-CPSF30 full length = Flag-CPSF30 full length (UniProt O95639-2 1-244); assay: UV cross-linking
[2] = target: Flag-CPSF30 (baculovirus) (UniProt O95639-2 1-244); assay: UV cross-linking
[3] = target: CPSF complex with HA-CPSF30 full length (human? (HEK293), UniProt Q10570;Q9C0J8;Q9P2I0;Q9UKF6;Q6UN15;O95639-2;Q92797 …); assay: UV cross-linking
[4] = target: T1, CPSF30 (within CPSF complex) (human? (HEK293), UniProt O95639 1-269); assay: UV cross-linking
[5] = target: T2, Wdr33 (within CPSF complex) (human? (HEK293), UniProt Q9C0J8 1-1336); assay: UV cross-linking
T2 sequence: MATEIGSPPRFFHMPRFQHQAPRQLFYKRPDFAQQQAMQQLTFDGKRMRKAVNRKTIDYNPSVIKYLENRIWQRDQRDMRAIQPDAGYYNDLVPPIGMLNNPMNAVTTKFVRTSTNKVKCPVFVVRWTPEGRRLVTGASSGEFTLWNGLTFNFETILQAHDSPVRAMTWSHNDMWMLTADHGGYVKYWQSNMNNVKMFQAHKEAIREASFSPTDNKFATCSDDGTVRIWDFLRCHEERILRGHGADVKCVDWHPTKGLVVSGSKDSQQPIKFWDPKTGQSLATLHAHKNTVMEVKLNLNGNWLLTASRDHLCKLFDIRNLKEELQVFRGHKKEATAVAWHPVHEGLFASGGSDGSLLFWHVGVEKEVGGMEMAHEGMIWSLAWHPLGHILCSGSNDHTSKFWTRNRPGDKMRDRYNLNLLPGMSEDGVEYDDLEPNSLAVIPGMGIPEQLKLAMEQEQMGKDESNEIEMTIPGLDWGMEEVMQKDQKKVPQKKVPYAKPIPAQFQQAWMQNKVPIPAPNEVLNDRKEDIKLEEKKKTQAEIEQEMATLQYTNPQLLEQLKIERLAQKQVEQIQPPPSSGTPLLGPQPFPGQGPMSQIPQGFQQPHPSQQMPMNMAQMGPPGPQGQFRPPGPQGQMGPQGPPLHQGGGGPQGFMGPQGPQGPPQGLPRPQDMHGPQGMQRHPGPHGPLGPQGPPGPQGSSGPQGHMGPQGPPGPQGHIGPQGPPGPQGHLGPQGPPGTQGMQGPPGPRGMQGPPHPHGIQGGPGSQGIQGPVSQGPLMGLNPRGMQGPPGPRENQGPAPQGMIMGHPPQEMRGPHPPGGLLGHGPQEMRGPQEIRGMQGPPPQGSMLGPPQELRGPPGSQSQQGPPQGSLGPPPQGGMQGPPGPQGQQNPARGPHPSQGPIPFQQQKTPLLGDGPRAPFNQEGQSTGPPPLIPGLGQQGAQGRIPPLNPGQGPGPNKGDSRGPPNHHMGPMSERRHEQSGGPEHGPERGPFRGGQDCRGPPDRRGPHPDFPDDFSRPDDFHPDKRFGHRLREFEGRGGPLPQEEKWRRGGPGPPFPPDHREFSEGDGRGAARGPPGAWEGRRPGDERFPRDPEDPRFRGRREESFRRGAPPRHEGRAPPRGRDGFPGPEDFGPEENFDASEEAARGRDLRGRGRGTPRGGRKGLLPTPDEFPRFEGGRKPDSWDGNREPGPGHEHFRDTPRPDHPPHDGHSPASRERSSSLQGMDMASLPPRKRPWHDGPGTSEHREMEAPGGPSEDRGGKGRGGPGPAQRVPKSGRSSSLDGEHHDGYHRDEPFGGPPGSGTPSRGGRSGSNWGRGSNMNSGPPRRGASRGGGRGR

[6] = target: T1, CPSF30 (within CPSF complex); assay: UV cross-linking, RNase, IP
[7] = target: T3, Fip1 (within CPSF complex) (human? (HEK293), UniProt Q6UN15 1-594); assay: UV cross-linking, RNase I, IP
T3 sequence: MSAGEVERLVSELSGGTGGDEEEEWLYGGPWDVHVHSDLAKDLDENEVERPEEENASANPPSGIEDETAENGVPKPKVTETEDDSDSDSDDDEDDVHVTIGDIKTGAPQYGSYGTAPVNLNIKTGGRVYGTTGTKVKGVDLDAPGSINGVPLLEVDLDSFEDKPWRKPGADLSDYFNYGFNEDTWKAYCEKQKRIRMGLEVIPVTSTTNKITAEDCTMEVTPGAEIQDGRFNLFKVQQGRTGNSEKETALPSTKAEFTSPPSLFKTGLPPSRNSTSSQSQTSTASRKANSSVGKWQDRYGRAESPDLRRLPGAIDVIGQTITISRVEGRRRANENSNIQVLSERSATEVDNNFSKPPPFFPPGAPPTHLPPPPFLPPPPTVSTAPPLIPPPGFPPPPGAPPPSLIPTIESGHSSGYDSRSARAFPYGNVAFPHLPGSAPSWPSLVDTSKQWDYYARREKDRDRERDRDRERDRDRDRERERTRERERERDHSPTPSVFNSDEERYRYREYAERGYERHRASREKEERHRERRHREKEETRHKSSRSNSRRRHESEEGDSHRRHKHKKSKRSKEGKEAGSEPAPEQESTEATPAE

[8] = target: T2, Wdr33 (within CPSF complex); assay: UV cross-linking, RNase, IP

CUGCAAUAAACAAGUUAA (ssRNA) [SVL wild type]: binds [1]; binds (Flag-CPSF30 full length); binds [2]. CUGCAAUAAACAAGUUAA (ssRNA) [SVL wild type]: binds [3].

AUGUACUAGGAGACACAAUAACGGCAAUGUUUUUAUUUGUA (ssRNA) [L3 mutant (AAUAAC)]: no binding [4]; no binding [5].

CUGCAAGAAACAAGUUAA (ssRNA) [SVL mutant (AAGAAA)]: no binding [1].

AUGUACUAGGAGACACAAUAAAGGCAAUGUUUUUAUUUGUA (ssRNA) [L3 wild type]: binds [6]; binds [7]; binds [8].
